Molecular target: the molecule itself
Test: AUC

B1: βB1-crystallin (natural protein, human, UniProt P53674 1-252, looked up)
chain: MSQAAKASASATVAVNPGPDTKGKGAPPAGTSPSPGTTLAPTTVPITSAKAAELPPGNYRLVVFELENFQGRRAEFSGECSNLADRGFDRVRSIIVSAGPWVAFEQSNFRGEMFILEKGEYPRWNTWSSSYRSDRLMSFRPIKMDAQEHKISLFEGANFKGNTIEIQGDDAPSLWVYGFSDRVGSVKVSSGTWVGYQYPGYRGYQYLLEPGDFRHWNEWGAFQPQMQSLRRLRDKQWHLEGSFPVLATEPPK
stoichiometry N: 2
